This note sets out measurements from patent EP4682166A1 (Guangzhou Enmai Biotechnology Co., Ltd, dated 2026).

Usually EC50 stands for the midpoint of the concentration-response curve.

The target of assay [1] is T1, human NMI (N-myc Interacting protein), recombinant protein (human, UniProt Q13287 1-307, limits assumed).
T1 construct: Gene ID: 9111; also called hNMI; antigen
T1 sequence (looked up): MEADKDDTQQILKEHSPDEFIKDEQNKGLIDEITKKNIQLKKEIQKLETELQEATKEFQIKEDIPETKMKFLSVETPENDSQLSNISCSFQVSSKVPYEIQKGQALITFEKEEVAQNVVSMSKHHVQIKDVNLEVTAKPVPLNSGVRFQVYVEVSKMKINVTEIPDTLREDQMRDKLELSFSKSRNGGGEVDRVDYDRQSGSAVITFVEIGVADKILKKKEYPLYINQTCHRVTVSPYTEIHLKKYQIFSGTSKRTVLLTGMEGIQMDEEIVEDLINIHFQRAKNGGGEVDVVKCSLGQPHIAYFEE
In words: indirect ELISA, coated hNMI.

Assay [2] concerns the target T1, human NMI (N-myc Interacting protein), …. Description: sandwich ELISA; detection 94C4-1-biotin 0.5µg/mL; hNMI 48.828 pg/mL. (ELISA stands for enzyme-linked immunosorbent assay.)
Assay [3] has the same target. Description: sandwich ELISA; detection 94C4-1-biotin 0.5µg/mL; hNMI 12,500.000 pg/mL.
The target is the same in assay [4]. In words: sandwich ELISA; detection 94C4-1-biotin 0.5µg/mL; hNMI 50,000.000 pg/mL.
For assay [5] the target is unchanged. In words: sandwich ELISA; detection 94C4-1-biotin 1µg/mL; hNMI 50,000.000 pg/mL.
Assay [6] has the same target. Description: sandwich ELISA; detection 94C4-1-biotin 0.5µg/mL; hNMI 6,250.000 pg/mL.
Assay [7] shares this target. Description: sandwich ELISA; detection 94C4-1-biotin 0.5µg/mL; hNMI 3,125.000 pg/mL.
For assay [8] the target is unchanged. In words: sandwich ELISA; detection 94C4-1-biotin 1µg/mL; hNMI 6,250.000 pg/mL.
For assay [9] the target is unchanged. Description: sandwich ELISA; detection 94C4-1-biotin 1µg/mL; hNMI 3,125.000 pg/mL.
Assay [10] shares this target. Description: sandwich ELISA; detection 94C4-1-biotin 1µg/mL; hNMI 195.313 pg/mL.
For assay [11] the target is unchanged. In words: sandwich ELISA; detection 94C4-1-biotin 1µg/mL; hNMI 25,000.000 pg/mL.
For assay [12] the target is unchanged. In words: sandwich ELISA; detection 94C4-1-biotin 0.5µg/mL; hNMI 781.250 pg/mL.
Assay [13] shares this target. In words: sandwich ELISA; detection 94C4-1-biotin 0.5µg/mL; hNMI 25,000.000 pg/mL.
Assay [14] has the same target. In words: sandwich ELISA; detection 94C4-1-biotin 1µg/mL; hNMI 97.656 pg/mL.
For assay [15] the target is unchanged. In words: sandwich ELISA; detection 94C4-1-biotin 0.5µg/mL; hNMI 390.625 pg/mL.
The target is the same in assay [16]. In words: sandwich ELISA; detection 94C4-1-biotin 1µg/mL; hNMI 12,500.000 pg/mL.
The target is the same in assay [17]. Description: sandwich ELISA; detection 94C4-1-biotin 0.5µg/mL; hNMI 195.313 pg/mL.
Assay [18] shares this target. Description: ELISA, binding to hNMI.
The target is the same in assay [19]. Description: sandwich ELISA; detection 94C4-1-biotin 1µg/mL; hNMI 1,562.500 pg/mL.
The target is the same in assay [20]. In words: ELISA, binding to hNMI. The source holds these as a separate data set.
For assay [21] the target is unchanged. Description: sandwich ELISA; detection 94C4-1-biotin 0.5µg/mL; hNMI 97.656 pg/mL.
The target is the same in assay [22]. In words: sandwich ELISA; detection 94C4-1-biotin 1µg/mL; hNMI 781.250 pg/mL.
The target is the same in assay [23]. In words: sandwich ELISA; detection 94C4-1-biotin 0.5µg/mL; hNMI 1,562.500 pg/mL.
The target is the same in assay [24]. Description: sandwich ELISA; detection 94C4-1-biotin 1µg/mL; hNMI 390.625 pg/mL.
The target is the same in assay [25]. Description: sandwich ELISA; detection 94C4-1-biotin 1µg/mL; hNMI 48.828 pg/mL.
Assay [26] shares this target. Description: ELISA EC50 against parent B-8.
For assay [27] the target is unchanged. Description: ELISA, binding to hNMI. This is another data set of the same source.
Assay [28] shares this target. In words: ELISA EC50 against parent B-8. The source holds these as a separate data set.

Substitutions are numbered along the chain they refer to. Numbers in names are those of the source. Like-named read-outs stand apart in the source and are kept apart here.

B1: monoclonal antibody 98G10 (antibody, V domains shown)
VH: QEQLEESGGDLVKPEGSLTLTCTASGFSFSASYWICWVRQAPGKGLEWIACIYGGSSGSAYYASWAKGRFTISKTSSTTVTLQMTSLTAADTATYFCARAGYYNYGSAGDIYPSSFKLWGPGTLVTVSS
VL: DIVMTQTPASVEAAVGGTVTINCQASQSISTALAWYQQKPGQPPKLLIYTASKVASGVPSRFSGSGSGTQFTLTISDLECADAATYYCQNYYYSSSSITFGGGTEVVVK
notes: Rabbit monoclonal antibody
In the case of B1, the concentration giving a half-maximal response (EC50) stood at 0.071 µg/mL in [1], 0.165 nM in assay [18] and 0.031 µg/mL in assay [20]. The OD450 amounted to 0.108 OD450 in assay [2]; 2.44 OD450 in assay [3]; 3.25 OD450 in assay [4]; 3.04 OD450 in assay [5]; 1.6 OD450 in assay [6]; 0.958 OD450 in [7]. For the same molecule, the OD450 in assay [8] was 1.53 OD450; in assay [9], 0.903 OD450; in [10], 0.179 OD450; in assay [11], 2.74 OD450; in assay [12] it was 0.377 OD450; in assay [13] it was 2.87 OD450. In addition, the OD450 amounted to 0.149 OD450 in assay [14]; 0.219 OD450 in [15]; 2.31 OD450 in [16]; 0.159 OD450 in assay [17]; 0.525 OD450 in [19]; 0.126 OD450 in assay [21]. In addition, the OD450 in assay [22] amounted to 0.341 OD450; in assay [23], 0.596 OD450; in assay [24] it was 0.233 OD450; in [25] it was 0.134 OD450.

B2: monoclonal antibody 39B4 (antibody, V domains shown)
VH: QEQLVESGGGLVQPEGSLTLTCTASGFSFSSSYWICWVRQAPGKGLEWIACIYAGTSGSTYYASWAKGRFTISKTSSTTVDLQMNSLTAADTATYFCARAGYYTYGAGVYIYPSSFKLWGPGTLVTVSS
VL: B1 VL with I2V, N22K, Q27E, S30G, T31N, T50S, K53N, V54L, N90S
notes: Rabbit monoclonal antibody; also called 39B4-1
Turning to B2, the EC50 in [1] was found to be 0.0535 µg/mL. For the same molecule, the OD450 came out at 0.13 OD450 in [2]; 2.3 OD450 in assay [3]; 3.16 OD450 in [4]; 3.1 OD450 in assay [5]; 1.56 OD450 in [6]; 0.96 OD450 in [7]. In addition, the OD450 in assay [8] was 1.52 OD450; in assay [9] it was 0.932 OD450; in assay [10], 0.207 OD450; in [11] it was 2.75 OD450; in assay [12], 0.387 OD450; in [13] it was 2.75 OD450. In addition, the OD450 in assay [14] was determined as 0.169 OD450; in [15] it was 0.25 OD450; in assay [16], 2.15 OD450; in [17] it was 0.179 OD450; in [19], 0.547 OD450; in assay [21], 0.143 OD450. For the same molecule, the OD450 in [22] amounted to 0.381 OD450; in assay [23] it was 0.593 OD450; in assay [24], 0.251 OD450; in assay [25], 0.145 OD450.

B3: B-8 mutant G106K (VH) (antibody, V domains shown)
VH: QSLEESGGDLVKPGASLTLTCTASGFSFSSSYYMCWVRQAPGKGLEWIACIYAGSSGSTYYASWAKGRFTISKTSSTTVTLQMTSLTAADTATYFCAREYSYDDYKDFWGFNLWGPGTLVTVSS
VL: ALVMTQTPSSVSAAVGGTVTINCQASQNIYTNLAWYQQKPGQPPKLLIYGASNLESGVPSRFKGSGSGTEYTLTISDLECDDAATYYCQSSLYSRIADRANAFGGGTEVVVK
Take B3: the “Fold decrease in affinity” value in assay [26] was greater than 100 fold.

B4: B-8-4 (antibody, V domains shown)
VH: B3 VH with Y61E, K106G
VL: B3 VL
notes: also called B-8 Y61E (VH)
With B4, the EC50 in assay [27] came to 0.177 nM. Besides, the “Fold decrease in affinity” value in assay [28] was determined as 0.57 fold.

B5: B-8-3 (antibody, V domains shown)
VH: B3 VH with Y33E, K106G
VL: B3 VL
notes: also called B-8 Y33E (VH)
B5: the half-maximal effective concentration (EC50) in [27] stood at 0.176 nM. Also, the “Fold decrease in affinity” value in [28] was 0.57 fold.

B6: B-8 mutant S101Y (VH) (antibody, V domains shown)
VH: B3 VH with S101Y, K106G
VL: B3 VL
As for B6, the “Fold decrease in affinity” value in assay [26] is greater than 500 fold.

B7: B-8-1 (antibody, V domains shown)
VH: B3 VH with K106G
VL: B3 VL with Y93E
notes: also called B-8 Y93E (VL)
Take B7: in assay [27], the EC50 came out at 0.698 nM. Further, the “Fold decrease in affinity” value in [28] turned out to be 2.26 fold.

B8: B-8 mutant S101K (VH) (antibody, V domains shown)
VH: B3 VH with S101K, K106G
VL: B3 VL
Regarding B8, in [26], the “Fold decrease in affinity” value is greater than 500 fold.

B9: B-8-2 (antibody, V domains shown)
VH: B3 VH with K106G
VL: B3 VL with S91R
notes: also called B-8 S91R (VL)
Consider B9, for which the EC50 in [27] stood at 1.45 nM. For the same molecule, the “Fold decrease in affinity” value in [28] came to 4.68 fold.

B10: B-8 mutant T31V (VL) (antibody, V domains shown)
VH: B3 VH with K106G
VL: B3 VL with T31V
For B10, in [26], the “Fold decrease in affinity” value is greater than 100 fold.

B11: B-8-5 (antibody, V domains shown)
VH: B3 VH with K106G, F111A
VL: B3 VL
notes: also called B-8 F111A (VH)
For the molecule B11, the 50% effective concentration (EC50) in assay [27] was found to be 0.238 nM. Besides, in assay [28], the “Fold decrease in affinity” value came to 0.77 fold.
